What all share (type): cell-based
For one experiment, the system named is L363 cells. The experiment in a line: JNG assay, co-culture with L363 cells. The settings on record: co-culture with L363. The procedure, abridged: (§1)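 Jurkat NFAT-GFP (JNG) cells stably transduced with SARs by lentivirus, with drug selection where the construct carried a resistance gene, then co-cultured with target cells at E:T ~1:2 for ~4–18 h. % GFP-positive cells measured by FACS against parental JNG; +/- to 5+ correspond to ~5–50% GFP-positive.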

Another experiment has as its system Nalm6 cells. The experiment in a line: JNG assay, co-culture with Nalm6 cells. The settings on record: co-culture with Nalm6. Here is the method: Cellular supernatant is collected and assayed for the induction of cytokines (e.g., IL2).
JNG (Jurkat cells expressing EGFP under an NFAT promoter) were infected with lentiviral vectors encoding different single chain and multi-chain SARs by spinfection in the presence of 8 µg/ml of Polybrene® (Sigma, Catalog no. H9268). The Jurkat-NFAT-GFP cells are engineered in such a way that the IL-2 promoter, which carries NFAT binding sites, is cloned upstream of the GFP gene. These cells have been used to study signaling via TCR and CAR. The different SARs were stably expressed in Jurkat NFAT-GFP cells by lentiviral mediated gene transfer, followed by selection with puromycin or blasticidin. No drug selection was used in case the construct lacked an antibiotic resistance gene. The SAR-expressing Jurkat-NFAT-GFP cells were cocultured with the target cells at E:T ratio of approximately 1:2 for approximately 4 hours to 18 hours. When the interaction between SIRs and their target antigen results in activation of the NFAT pathway, GFP expression is induced. […] GFP expression was monitored by FACS analysis. The Jurkat-NFAT-GFP (parental) cells were used as control. The structure of different constructs can be determined based on their names. For example, the construct CD8SP-CD19-hu-mROO5-1-vL-[hTCRa-C SDVP]-F-F2A-Spe-IgHSP-Apa-CD20-vHH-2HCD25-G4S-CDl9-hu-mROO5-1-vH-Mlu-[hTCRb-KACIAH]-F-P2A-PAC has the following modules from 5′ to 3′ direction: a CD8 signal peptide (CD8SP), the CD19 targeting hu-mROO5-1 vL fragment (CD19-hu-mROO5-1), Xho1 cloning site, human TCRa constant chain containing CSDVP mutations (hTCRa-CSDVP), Furine cleavage site (F), F2A ribosomal skip sequence (F2A), SpeI site, human IgH signal peptide (IgHSP), Apa I restriction enzyme site, camelid CD20-2HCD25-VHH module targeting CD20, BamHI restriction enzyme site, Glycinex4-serine linker (G4S), BstI restriction enzyme site, CD19-hu-mROO5-1-vH fragment targeting CD19, Mlu I restriction enzyme site, human TCRb constant chain containing KACIAH mutations ([hTCRb-KACIAH]), Furine cleavage site (F), P2A ribosomal skip sequence and Puromycin resistance gene (PAC). The sequence of the other constructs in the table can be similarly determined from their names and by referring to the different Tables of this disclosure that provide the names and SEQ ID NO of the different modules. Alternatively, the composition and modular architecture of the different SAR constructs can be determined from their sequences by bioinformatics tools, including using nucleic acid and amino acids homology searches. A SAR is considered positive in the assay in case the SAR expressing Jurkat-NFAT-GFP cells show greater % GFP positive cells when cultured with the target cell line as compared to parental Jurkat-NFAT-GFP cells. The signs +/-, +, 2+ etc. after the name of the cell lines indicate the relative degree of positivity on the Jurkat-NFAT-GFP assay as measured by the % GFP positive cells after culture of the SAR expressing Jurkat-NFAT-GFP cells with that cell line above the % GFP cells observed in parental Jurkat NFAT-GFP cells serving as controls. In general, the number +/-, +, 2+, 3+, 4+, 5+ refer to approximately 5%, 10%, 20%, 30%, 40% and 50% GFP positive cells. The % of GFP induction in the above assay is dependent not only the relative strength of the SAR but also, among other factors, on the relative level of expression of the SAR in the JNG cells and the relative level of expression of the target antigen in the target cell line. To control for the difference in gene transduction efficiency of the different SAR constructs, the experiment was conducted with JNG cells transduced with SAR constructs co-expressing a drug resistance gene (e.g., puromycin or PAC) followed by drug selection to generate a stable population of SAR-expressing cells. […]

Another experiment relates to RAJI cells. The experiment in a line: JNG assay, co-culture with RAJI cells. The settings on record: JNG cells expressing construct, co-culture with Raji. The procedure, abridged: as §1

The record followed here is patent publication US20230212319A1, “NOVEL ANTIGEN BINDING DOMAINS AND SYNTHETIC ANTIGEN RECEPTORS INCORPORATING THE SAME” (University of Southern California, priority 2020, published 2023).

B1: 21987 (protein)
chain: MALPVTALLLPLALLLHAARPQLQLQESGPGLVKPSETLSLTCTVSGDSISSGDYYWGWIRQPPGKGLEWIGHIYYSGVTYYNPSLKSRVTISVDTSRNQFSLKLSSVTAADTAVYYCTREDSSNWRSRGQGTLVTVSSLEDLKNVFPPEVAVFEPSEAEISHTQKATLVCLATGFYPDHVELSWWVNGKEVHSGVCTDPQPLKEQPALNDSRYCLSSRLRVSATFWQNPRNHFRCQVQFYGLSENDEWTQDRAKPVTQIVSAEAWGRADCGFTSESYQQGVLSATILYEILLGKATLYAVLVSALVLMAMVKRKDSRGRAKRSGSGATNFSLLKQAGDVEENPGPTSMDWIWRILFLVGAATGAHSFEQVQLVESGGGLVQPGGSLRLSCAASGFTFTNHAMSWVRQAPGKGLELVSSISGNGRTTYYADSVKGRFTISRDISKNTLDLQMNSLRAEDTAVYYCAKDGGETLVDSRGQGTLVTVSSTRIQNPDPAVYQLRDSKSSDKSVCLFTDFDSQTNVSQSKDSDVYITDKCVLDMRSMDFKSNSAVAWSNKSDFACANAFNNSIIPEDTFFPSPESSCDVKLVEKSFETDTNLNFQNLSVIGFRILLLKVAGFNLLMTLRLWSSRAKRSGSGVKQTLNFDLLKLAGDVESNPGPSRGHMTEYKPTVRLATRDDVPRAVRTLAAAFADYPATRHTVDPDRHIERVTELQELFLTRVGLDIGKVWVADDGAAVAVWTTPESVEAGAVFAEIGPRMAELSGSRLAAQQQMEGLLAPHRPKEPAWFLATVGVSPDHQGKGLGSAVVLPGVEAAERAGVPAFLETSAPRNLPFYERLGFTVTADVEVPEGPRTWCMTRKPGA
In the case of B1, the “NFAT-GFP ASSAY: L363” value in the experiment on L363 cells was “+ (refer to approximately 5%, 10%, 20%, 30%, 40% and 50% GFP positive cells)”. In addition, the “NFAT-GFP ASSAY: Nalm6” value in the experiment with Nalm6 cells was “+/- (refer to approximately 5%, 10%, 20%, 30%, 40% and 50% GFP positive cells)”.

B2: 22210 (protein)
chain: MALPVTALLLPLALLLHAARPACPQLGPYELWELSHGTGGGGSGGGGSGGGGSEFDIQMTQSPSSLSASVGDRVTITCKASDHINNWLAWYQQKPGQAPKLLIYGATTLETGVPSRFSGSGSGTDYTLTISSLQPEDFATYYCQQSWNTPWTFGQGTKLEIKRLEDLKNVFPPEVAVFEPSKAEIAHTQKATLVCLATGFYPDHVELSWWVNGKEVHSGVCTDPQPLKEQPALNDSRYCLSSRLRVSATFWQNPRNHFRCQVQFYGLSENDEWTQDRAKPVTQIVSAEAWGRADCGITSASYHQGVLSATILYEILLGKATLYAVLVSALVLMAMVKRKDSRGRAKRSGSGATNFSLLKQAGDVEENPGPTSATMDWIWRILFLVGAATGAHSGPQVQLQESGGGLAQAGGSLRLSCAASGRTFSMGWFRQAPGKEREFVAAITYSGGSPYYASSVRGRFTISRDNAKNTVYLQMNSLKPEDTAVYYCAANPTYGSDWNAENWGQGTQVTVSSGSGGGGSGGGGSGGGGSFEQVQLQQPGAELVKPGASVKMSCKASGYAFSSYWINWMKQKPGQGLEWIGQIYPGDGDTNYNGKFKGRATLTADTSSSTAYMQLSSLTSEDSAVYFCARSITTVVGCAMDYWGQGTSVTVSSTRIQNPDPAVYQLRDSKSSDKSVCLFTDFDSQTNVSQSKDSDVYITDKCVLDMRSMDFKSNSAVAWSNKSDFACANAFNNSIIPEDTFFPSSDVPCDVKLVEKSFETDTNLNFQNLSVIGFRILLLKVAGFNLLMTLRLWSSRAKRSGSGVKQTLNFDLLKLAGDVESNPGPSRGHMTEYKPTVRLATRDDVPRAVRTLAAAFADYPATRHTVDPDRHIERVTELQELFLTRVGLDIGKVWVADDGAAVAVWTTPESVEAGAVFAEIGPRMAELSGSRLAAQQQMEGLLAPHRPKEPAWFLATVGVSPDHQGKGLGSAVVLPGVEAAERAGVPAFLETSAPRNLPFYERLGFTVTADVEVPEGPRTWCMTRKPGA
Take B2: the “NFAT-GFP ASSAY: Raji” value in the experiment with RAJI cells is 2+ (refer to approximately 5%, 10%, 20%, 30%, 40% and 50% GFP positive cells). Moreover, in the experiment with Nalm6 cells, the “NFAT-GFP ASSAY: Nalm6” value is “+ (refer to approximately 5%, 10%, 20%, 30%, 40% and 50% GFP positive cells)”.

B3: 22047 (protein)
chain: MALPVTALLLPLALLLHAARPQLQLQESGPGLVKPSETLSLTCTVSGDSISSGDYYWGWIRQPPGKGLEWIGHIYYSGVTYYNPSLKSRVTISVDTSRNQFSLKLSSVTAADTAVYYCTREDSSNWRSRGQGTLVTVSSLEDKTHTCPPCPAPIKTDVITMDPKDNCSKDANDTLLLQLTNTSAYYMYLLLLLKSVVYFAIITCCLLRRTAFCCNGEKSRAKRSGSGATNFSLLKQAGDVEENPGPTSMDWIWRILFLVGAATGAHSFEVQLLESGGGLIQPGGSLRLSCAASGFTFSSHAMTWVRQAPGKGLEWVSAISGSGDYTHYADSVKGRFTISRDNSKNTVYLQMNSLRAEDSAVYYCAKDEDGGSLLGHRGQGTLVTVSSTRIQNPDPAVYQLRDSKSSDKSVCLFTDFDSQTNVSQSKDSDVYITDKCVLDMRSMDFKSNSAVAWSNKSDFACANAFNNSIIPEDTFFPSPESSCDVKLVEKSFETDTNLNFQNLSVIGFRILLLKVAGFNLLMTLRLWSSRAKRSGSGVKQTLNFDLLKLAGDVESNPGPSRGHMTEYKPTVRLATRDDVPRAVRTLAAAFADYPATRHTVDPDRHIERVTELQELFLTRVGLDIGKVWVADDGAAVAVWTTPESVEAGAVFAEIGPRMAELSGSRLAAQQQMEGLLAPHRPKEPAWFLATVGVSPDHQGKGLGSAVVLPGVEAAERAGVPAFLETSAPRNLPFYERLGFTVTADVEVPEGPRTWCMTRKPGA
Take B3: the “NFAT-GFP ASSAY: L363” value in the experiment on L363 cells was “+/- (refer to approximately 5%, 10%, 20%, 30%, 40% and 50% GFP positive cells)”. Moreover, in the experiment on Nalm6 cells, the “NFAT-GFP ASSAY: Nalm6” value was “+/- (refer to approximately 5%, 10%, 20%, 30%, 40% and 50% GFP positive cells)”.

B4: 21986 (protein)
chain: MALPVTALLLPLALLLHAARPQLQLQESGPGLVKPSETLSLTCTVSGDSISSGDYYWGWIRQPPGKGLEWIGHIYYSGVTYYNPSLKSRVTISVDTSRNQFSLKLSSVTAADTAVYYCTREDSSNWRSRGQGTLVTVSSLEDLKNVFPPEVAVFEPSEAEISHTQKATLVCLATGFYPDHVELSWWVNGKEVHSGVCTDPQPLKEQPALNDSRYCLSSRLRVSATFWQNPRNHFRCQVQFYGLSENDEWTQDRAKPVTQIVSAEAWGRADCGFTSESYQQGVLSATILYEILLGKATLYAVLVSALVLMAMVKRKDSRGRAKRSGSGATNFSLLKQAGDVEENPGPTSMDWIWRILFLVGAATGAHSFEEVQLLESGGGLVQPGGSLRLSCAASGFTFSSYAMSWVRQAPGKGLEWVSSISGSGDYIYYADSVKGRFTISRDISKNTLYLQMNSLRAEDTAVYYCAKEGTGANSSLADYRGQGTLVTVSSTRIQNPDPAVYQLRDSKSSDKSVCLFTDFDSQTNVSQSKDSDVYITDKCVLDMRSMDFKSNSAVAWSNKSDFACANAFNNSIIPEDTFFPSPESSCDVKLVEKSFETDTNLNFQNLSVIGFRILLLKVAGFNLLMTLRLWSSRAKRSGSGVKQTLNFDLLKLAGDVESNPGPSRGHMTEYKPTVRLATRDDVPRAVRTLAAAFADYPATRHTVDPDRHIERVTELQELFLTRVGLDIGKVWVADDGAAVAVWTTPESVEAGAVFAEIGPRMAELSGSRLAAQQQMEGLLAPHRPKEPAWFLATVGVSPDHQGKGLGSAVVLPGVEAAERAGVPAFLETSAPRNLPFYERLGFTVTADVEVPEGPRTWCMTRKPGA
Turning to B4, the “NFAT-GFP ASSAY: L363” value with L363 cells was “+ (refer to approximately 5%, 10%, 20%, 30%, 40% and 50% GFP positive cells)”. Further, the “NFAT-GFP ASSAY: Nalm6” value with Nalm6 cells was “+/- (refer to approximately 5%, 10%, 20%, 30%, 40% and 50% GFP positive cells)”.
